Assay: yeast display, Sf9 membrane polyspecificity reagent, FACS + sequencing; frameworks hold sequencing errors
Outline: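 After 36–48 hours of galactose induction, yeast (Saccharomyces cerevisiae BJ5465) displaying a synthetic nanobody library were stained at 4 °C for 1 hour with 10% biotinylated, detergent-solubilized Sf9 membrane reagent. Streptavidin microbeads enriched the stained cells before FACS sorting into low and high (top ~1%) gates on anti-HA and streptavidin fluorescence. Each clone's polyreactivity label reflects its gate of origin.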

Row | Sequence | polyreactivity (PSR sort gate)
1 | QVQLVESGGGLVQAGGSLRLSCAASGSIFKQNAMGWYRQAPGKERELVADITSSGGSTYYADSVKGRFTISRDNAKNTVYLQMNSLKPEDTAVYYCAADGNGVDYDYWGQGTQVTVSS | low polyreactivity
2 | QVQLVESGGGLVQAGGSLRLSCAASGSIFKQYVMGWYRQAPGKEREFVARISKSGGSTYYADSVKGRFTISRDNAKNTVYLQMNSLKPEDTAVYYCAVASKQALQPWYDYWGQGTQVTVSS | high polyreactivity
3 | QVQLVESGGGLVQAGGSLRLSCAASGSIFKRNAMGWYRQAPGKERELVASISSGGSTHYADSVKGRFTISRDNAKNTVYLQMNSLKPEDTAVYYCAADSSWYVLYGSYYRSGLDYWGQGTQVTVSS | low polyreactivity
4 | QVQLVESGGGLVQAGGSLRLSCAASGSIFKRYAMGRYRQAPGKERELVAAISYSGTSTYYADSVKGRFTISRDTAKNTVYLQMNSLKPEDTAVYYCNKVPGYRHYLGYPGRYGYWGQGTQVTVSS | high polyreactivity
5 | QVQLVESGGGLVQAGGSLRLSCAASGSIFKRYAMGWYRQAPGKERELVARISRRGGTYYADSVKGRFTISRDNAKNTVYLQMNSLKPEDTAVYYCNANVIFADNNDRDYWGQGTQVTVSS | low polyreactivity
6 | QVQLVESGGGLVQAGGSLRLSCAASGSIFKRYTMGWYRQAPGKERELVASIRSRAGNTYYADSVKGRFTISRDNAKNTVYLQMNSLKPEDTAVYYCAVSAWGYYRTSYGYWGQGTQVTVSS | high polyreactivity
7 | QVQLVESGGGLVQAGGSLRLSCAASGSIFKSYAMGWYRKAPGKERELVAAITWRSGRTYYADSLKGRFTISRDNAKNTVYLQMNSLKPEDTAVYYCAAELVSVRYLYALHDRDYWGKGTQVTVSS | low polyreactivity
8 | QVQLVESGGGLVQAGGSLRLSCAASGSIFKSYAMGWYRQAPGKERELVAAISWSGTSTYYADSVKGRFTISRDNAKNTVYLQMNSLKPEDTAVYDCAASGDYGEYGYWGQGTQVTVSS | low polyreactivity
9 | QVQLVESGGGLVQAGGSLRLSCAASGSIFKSYAMGWYRQAPGKERELVAAITWRSGRTYYADSVKGRFTISRDNAKNTVYLQMTSLKPEDTAVYYCAADDTSYYIYSYDYWGQGTQVTVSS | low polyreactivity
10 | QVQLVESGGGLVQAGGSLRLSCAASGSIFKTYAMGWYRQAPGKERELVAAISWRGGSTYYADSVKGRFTISRDNAKNTVYLEMNSLKPEDTAVYYCAAGRKFGTRTLWYRYGYWGQGTQVTVSS | high polyreactivity
11 | QVQLVESGGGLVQAGGSLRLSCAASGSIFKVNAMGWYRQAPGKEWELVARTYYADSVKGRFTISRDNAKNTVYLQMNSLKPEDTAVYYCAASRGIYNPYDYWGQGTQVTVSS | low polyreactivity
12 | QVQLVESGGGLVQAGGSLRLSCAASGSIFKVYAMGWYRQAPGKERELVATISGSGGSTYYADSVKGRFTISRDNAKNTVYLQMNSLKPEDTAVYYCAAEVYVPDYFQHKFDVEYEYWGQGTQVTVSS | low polyreactivity
13 | QVQLVESGGGLVQAGGSLRLSCAASGSIFKWNAMGWYRQAPGKEWELVAAITWSGGRTYYADSVKGRFTISRDNAKNTVYLQMNSLKPEDTAVYYCAATQYRSDGWRYDYWGQGTQVTVSS | high polyreactivity
14 | QVQLVESGGGLVQAGGSLRLSCAASGSIFKWYTMGWYRQAPGKERELVAAITWGGGSTYYADSVKGRFTISRDNAKNTVYLQMNSLKPEDTAVYYCNAEYVVADYGYYTIEFDYWGQGTQVTVSS | low polyreactivity
15 | QVQLVESGGGLVQAGGSLRLSCAASGSIFKYNDMGWYRQAPGKERELVAAIRLGGGSTSYADSVKGRFTISRDNAKNTVYLQMNSLKPEDTAVYYCAAEINVGWLGSYDYWGQGTQVTVSS | low polyreactivity
16 | QVQLVESGGGLVQAGGSLRLSCAASGSIFKYYAMGWYRQAPGKERELVAAISRSGTSTYYADSVKGRFTISRDNAKNTVYLQMNSLKPEDTAVYYCNAVGISQFAKYGWRYDYWGQGTQVTVSS | high polyreactivity
17 | QVQLVESGGGLVQAGGSLRLSCAASGSIFKYYAMGWYRQAPGKERELVAAISSGGITNYADSVKGRFTISRDNAKNTVYLQMNSLKPEDTAVYYCAARDYVRLGLYDYDYWGQGTQVTVSS | low polyreactivity
18 | QVQLVESGGGLVQAGGSLRLSCAASGSIFKYYAMGWYRQAPGKERELVAAISSSGGSTYYADSVKWRFTISRDNAKNTVYLQMNSLKPEDTAVYYCNTPYIWKNYDYWGQGTQVTVSS | high polyreactivity
19 | QVQLVESGGGLVQAGGSLRLSCAASGSIFKYYAMGWYRQAPGKERELVAAITSGVSTYADSVKGPFTISRDNAKNTVYLQMNSLKPEDTAVYYCAVRVTGPRGDYWGQGTQVTVSS | low polyreactivity
20 | QVQLVESGGGLVQAGGSLRLSCAASGSIFKYYAMGWYRQAPGKERELVAAITWSGTRTYYADSVKGRFTISRDNAKNTVYLQMNSLKPEDTAVYYCNAPRYLYSAGRFNYWGQGTQVTVSS | high polyreactivity
21 | QVQLVESGGGLVQAGGSLRLSCAASGSIFKYYTMGWYRQAPGKERELVASINGGGSTNYADSVKGRFTISRDNAKNTVYLQMNSLKPEDTAVYYCNARYWWQDGYWGQGTQVTVSS | high polyreactivity
22 | QVQLVESGGGLVQAGGSLRLSCAASGSIFKYYVMGWYRQAPGKEREFVAVISWSGGTTYYADSVKGRFTISRDNAKNTVYLQMNSLKPEDTAVYDCNKDYIYVGVPRYRSINHDYWGQGTQVTVSS | low polyreactivity

Row | Sequence | polyreactivity (PSR sort gate)
23 | QVQLVESGGGLVQAGGSLRLSCAASGSIFKYYVMGWYRQAPGKERELVAAITRGGRTYYADSVKGRFTISRDNAKNTVYLQMNSLKPEDTAVYYCARSLQTTSGIIPYDYWGQGTQVTVSS | high polyreactivity
24 | QVQLVESGGGLVQAGGSLRLSCAASGSIFLDNAMGWYRQAPGKERELVAAISRRGGTTYYADSVKGRFTISRDNAKNTVYLQMNSLKPEDTAVYYCAARYPGGKYYSYTYNYWGQGTQVTVSS | high polyreactivity
25 | QVQLVESGGGLVQAGGSLRLSCAASGSIFLDYAMGWYRQAPGKERELVAAITSGGSTYYADSVKGRFTISRDNAKNTVYLQMNSLKPEDTAVYYCNDEYPQYKAGFYGYDYWGQGTQVTVSS | low polyreactivity
26 | QVQLVESGGGLVQAGGSLRLSCAASGSIFLDYAMGWYRQAPGKERELVAGITISGGSTYYADSVKGRFTISRDNAKNTVYLQMNSLKPEDTAVYYCAKVAPRSSSSQEYYYWGQGTQVTVSS | low polyreactivity
27 | QVQLVESGGGLVQAGGSLRLSCAASGSIFLENTMGWYRQAPGKERELVAAITSSGDSTYADSVKGRFTISRDNAKNTVYLQMNSLKPEDTAVYYCAQYTRDIFAVTFYEGEDYWGQGTQVTVSS | low polyreactivity
28 | QVQLVESGGGLVQAGGSLRLSCAASGSIFLEYTMGWYRQAPGKERELVASISWGGGSTYYADSVKGRFTISRDNAKNTVFLQMNSLKPEDTAVYYCNKVGGDPVRGGYDYWGQGTQVTVSS | low polyreactivity
29 | QVQLVESGGGLVQAGGSLRLSCAASGSIFLGNSMGWYRQAPGKERELVAAISSITGRTYYADSVKGRFTISRDNAKNTVYLQMNSLKPEDTAVYYCNKVKRSFIVNTDDYWGQGTQVTVSS | high polyreactivity
30 | QVQLVESGGGLVQAGGSLRLSCAASGSIFLIYAMGWYRQAPGKERELVAAISSGGSTYYADSVKGRFTISRDNAKNTVYLQINSLKPEDTAVYYCATYSTSVAYHLYYWGQGTQVTVSS | low polyreactivity
31 | QVQLVESGGGLVQAGGSLRLSCAASGSIFLLYAMGWYRQAPGKERELVARISWSGDNTRYADSVKGRFTISPDNAKNTVYLQMNSLKPEDTAVYYCNAYFFYGQWKGYDYWGQGTQVTVSS | low polyreactivity
32 | QVQLVESGGGLVQAGGSLRLSCAASGSIFLLYYMGWYRQAPGKERELVAANTWSGGSTYYADSVKGRFTISRDNAKNSVYLQMNSLKPEDTAVYYFAADEPYPTAYEYWGQGTQVTLSS | low polyreactivity
33 | QVQLVESGGGLVQAGGSLRLSCAASGSIFLPYAMGWSRQAPGTEREFVAAIRWSTGRTFYADSVKGRFTISRDNAKNTVYLQMNSLKPEDTAVYYCAAKYYDSWYTYRYDYWGQGTQVTVSS | high polyreactivity
34 | QVQLVESGGGLVQAGGSLRLSCAASGSIFLRNAMGWYRQAPGKERELVAAITSNGGRTYYADSVKGRFTISRDNAKNTVYLQMNSLKPEDTAVYYCARVTRLGGGDYDYWGQGTQVTVSS | high polyreactivity
35 | QVQLVESGGGLVQAGGSLRLSCAASGSIFLRYAMGWYRQAPGKESELVARISWSGGSTYYADSVKGRFTISRDNAKNTVYLQMNSLKPEDTAVYYCAAGFRAYGELDYWGQGTQVTVSS | low polyreactivity
36 | QVQLVESGGGLVQAGGSLRLSCAASGSIFLSNAMGWSRQAPGKERELVADIDWTGGDTYYADSVKGRFTISRDNAKNTVYLQMNSLKPEDTAVYYCAADYGYRNLLTEYGYWGQGTQVTVSS | low polyreactivity
37 | QVQLVESGGGLVQAGGSLRLSCAASGSIFLSYAMGWYRQAPGKERELVAAITGSGGSTYYADSVKGRFTISRDNAKNTVYLQMNSLKPEDTAVYYCARRRHHVIWYGYWGQGTQVTVSS | low polyreactivity
38 | QVQLVESGGGLVQAGGSLRLSCAASGSIFLSYGMGRYRQAPGKERELVATITWSGGSTTYADSVKGRFTISRDNAKNTVYLQMNSLKPEDTAVYYCIALYDVWITLLTYTSSDYWGQGTQVTVSS | low polyreactivity
39 | QVQLVESGGGLVQAGGSLRLSCAASGSIFLTYAMGWYRKAPGKERELVAAISGGGNTYYADSVKGRFTISRDNAKNTVYLQKNSLKPEDTAVYYCNAVPHIYAEGTAYNYWGQGTQVTVSS | low polyreactivity
40 | QVQLVESGGGLVQAGGSLRLSCAASGSIFLTYDMGWYRQAPGKERELVAAITGSGDSTYYADSVKGRFTISRDNAKNTVYLQMNSLKPEDNAVYYCNADGPSTPWVDYGYWGQGTQVTVSS | low polyreactivity
41 | QVQLVESGGGLVQAGGSLRLSCAASGSIFLVNAMGWYRQAPGKERELVAAISWGGGSTYYADSVKGRFTISRDNAKNTVYVQMNSLKPEDTAVYYCAAESYYYIRYFDYSRWMGYWGQGTQVTVSS | low polyreactivity
42 | QVQLVESGGGLVQAGGSLRLSCAASGSIFLVNAMGWYRQAPGKERELVAIDGSGGSTYADSVKGRFTISRDNAMNTVYLQMNILKPEDTAVYYCAKDQEGPLYDYWGQGTQVTVSS | low polyreactivity
43 | QVQLVESGGGLVQAGGSLRLSCAASGSIFLVTAMGWYRQAPGKERELVAAITFGGDSTYYADSVKGRFTISRDNAKNTVYLQMNSLKPEDTAVYYCAADPSPYGDEYDYWGQGTQVTVSS | low polyreactivity
